Results: article PMC4332690

Columns and labels:
[1] = target: PIDD death domain (PIDD-DD), human, residues 778-883 (human) (UniProt Q9HB75); assay: native MS; nanoESI-MS, positive ion mode; 15 μM purified complex in 50 mM ammonium acetate pH 7.8
[2] = target: PIDD death domain (PIDD-DD), human, residues 778-883 (human) (UniProt Q9HB75); assay: SEC-MALS; as a1 but total protein loaded 1.5 mg/mL (lowest concentration; some subunit dissociation)

Chain of UniProt Q9HB75 (Q9HB75 778-883): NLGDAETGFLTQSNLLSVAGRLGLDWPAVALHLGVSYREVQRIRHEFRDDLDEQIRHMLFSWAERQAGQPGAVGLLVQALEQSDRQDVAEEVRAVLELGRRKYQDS

Substance	population of the 5:5 complex [1] [%]	population of the 6:5 complex [1] [%]	population of the 7:5 complex [1] [%]	stoichiometry N (RAIDD-DD per PIDD-DD (5:5)) [1]	stoichiometry N (RAIDD-DD per PIDD-DD (6:5)) [1]	stoichiometry N (RAIDD-DD per PIDD-DD (7:5)) [1]	population of the 5:4 complex [1] [%]	stoichiometry N (RAIDD-DD per PIDD-DD (5:4)) [1]	stoichiometry N (RAIDD-DD per PIDD-DD (R4:P4)) [2]
RAIDD death domain (RAIDD-DD), human, residues 99-199, wild type (from UniProt P78560 99-199) (domain or fragment)	28	43	29	1	1.2	1.4			
RAIDD-DD (E188K) (from UniProt P78560 99-199) (domain or fragment)	87			1			13	1.25	1
